Seven substances from article PMC4470385 can be followed below.

For the experiment, the target named is Von Willebrand factor (VWF) (UniProt P04275). As to the kind of experiment: ELISA.

“FVIII 336(P4-P3')562 variant (B-domainless) (natural protein)”: the Kd (commonly a measure of binding affinity in units of concentration) was 0.82 nM.
Substance “FVIII Asp519Val/Glu665Val variant (B-domainless) (natural protein)” had a Kd of 0.9 nM.
“FVIII 336(P4-P3')562/Asp519Val/Glu665Val variant (B-domainless) (natural protein)” displayed an equilibrium dissociation constant (Kd) of 0.87 nM.
The substance “FVIII 336(P4-P3')562/Ala108Ile variant (B-domainless) (natural protein)” registered a Kd of 0.91 nM.
“WT FVIII (B-domainless factor VIII, lacking residues Gln744-Ser1637) (natural protein)” returned a Kd of 0.95 nM.
In turn, “FVIII Ala108Ile variant (B-domainless) (natural protein)” gave a Kd of 0.97 nM.
On to “FVIII 336(P4-P3')562/Ala108Ile/Asp519Val/Glu665Val variant (B-domainless) (natural protein)”, for which the Kd is 1 nM.
